Data reported in patent US20170349625A1.

Key:
[1] = test system: T1, 5,6-carboxyfluorescein labeled Tub-tag peptide (CF-Tub-tag, peptide 13)
T1 sequence: VDSVEGEGEEEGEE

[2] = target: GBP4-Tub-tag (GFP-specific nanobody GBP4 with the Tub-tag sequence fused to its C-terminus); assay: cell-based or functional assay
Sequence of GBP4-Tub-tag (GFP-specific nanobody GBP4 with the Tub-tag sequence fused to its C-terminus) (heavy, as listed by the source): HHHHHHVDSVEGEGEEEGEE

Row | Substance | conjugate yield after 120 min at 37 C, 3-N3-L-tyrosine (3), TTL:peptide 1:200, isocratic HPLC [1] | conjugate yield after 120 min at 37 C, 3-formyl-L-tyrosine (1), TTL:peptide 1:200, isocratic HPLC [1] | C-terminally modified GBP4 (3-N3-L-tyrosine incorporation followed by SPAAC to DBCO-biotin), 1:10 TTL/GBP4, 37 C, one hour [2] | conversion of GBP4 (3-N3-L-tyrosine incorporation followed by SPAAC to DBCO-biotin), 1:5 TTL/GBP4, 37 C, one hour [2] | conversion of GBP4, 1:5 TTL/GBP4, three hours [2] | conversion of GBP4, 1:10 TTL/GBP4, three hours [2]
1 | tubulin tyrosine ligase (TTL, Canis lupus) | After 120 min of incubation at 37 °C the conjugate yield with 1 and 3 was 63% and 80%, respectively | After 120 min of incubation at 37 °C the conjugate yield with 1 and 3 was 63% and 80%, respectively | – | – | – | –
2 | tubulin tyrosine ligase (TTL, Canis lupus) (enzyme) | – | – | 71% | 82% | 99% | 88%
